B1: GTGCAC_negctrl_site554 (dsDNA)
DNA 1: AAAAAAAAAAAATATTGTAGAATATGATGACTTTGT
DNA 2: ACAAAGTCATCATATTCTACAATATTTTTTTTTTTT
B2: GTGCAC_negctrl_site636 (dsDNA)
DNA 1: TTTTGTTGAAAAAAAAAAAAAAAATTAAATTAAATT
DNA 2: AATTTAATTTAATTTTTTTTTTTTTTTTCAACAAAA
B3: GTGCAC_negctrl_site493 (dsDNA)
DNA 1: TTCTCAAATATAATAAAATTATAAAGTGACCTAACT
DNA 2: AGTTAGGTCACTTTATAATTTTATTATATTTGAGAA
B4: GTGCAC_negctrl_site132 (dsDNA)
DNA 1: AAAGTAACACACTAATATTTTAACAAATAATATATA
DNA 2: TATATATTATTTGTTAAAATATTAGTGTGTTACTTT
B5: GTGCAC_negctrl_site310 (dsDNA)
DNA 1: TTACTAAAAATTATTAATAAATAATAATTATAAATT
DNA 2: AATTTATAATTATTATTTATTAATAATTTTTAGTAA
B6: GTGCAC_negctrl_site402 (dsDNA)
DNA 1: AAAAAAAAAATACAACAAAGTTAAATAAATAAATAA
DNA 2: TTATTTATTTATTTAACTTTGTTGTATTTTTTTTTT
B7: GTGCAC_negctrl_site626 (dsDNA)
DNA 1: AAAATATAAATATATTTGAACATGGATCAAATGTAA
DNA 2: TTACATTTGATCCATGTTCAAATATATTTATATTTT
B8: GTGCAC_negctrl_site259 (dsDNA)
DNA 1: TATTTACAACAAATTTAATTATTTTTAACTTATAAA
DNA 2: TTTATAAGTTAAAAATAATTAAATTTGTTGTAAATA
B9: GTGCAC_site10721 (dsDNA)
DNA 1: ATATTATATCTAATCGTGCACAACTGTACATTTGTC
DNA 2: GACAAATGTACAGTTGTGCACGATTAGATATAATAT
B10: GTGCAC_negctrl_site266 (dsDNA)
DNA 1: AATCAATATAAATAAAATTTTTAATTTTAACCCTAA
DNA 2: TTAGGGTTAAAATTAAAAATTTTATTTATATTGATT
B11: GTGCAC_negctrl_site199 (dsDNA)
DNA 1: AAAATTATATTTTATAGAAATTTAAATAAATATATA
DNA 2: TATATATTTATTTAAATTTCTATAAAATATAATTTT
B12: GTGCAC_negctrl_site308 (dsDNA)
DNA 1: TAATAATAGTACTGACATCAAAATCTTATTAAAAAT
DNA 2: ATTTTTAATAAGATTTTGATGTCAGTACTATTATTA
B13: GTGCAC_negctrl_site735 (dsDNA)
DNA 1: AAAATTAATTATTACAAAAATGAAAAGACATATTTT
DNA 2: AAAATATGTCTTTTCATTTTTGTAATAATTAATTTT
B14: GTGCAC_negctrl_site348 (dsDNA)
DNA 1: AAAATAAAAGAATAAAAATATGAAACTTTTTTAAAA
DNA 2: TTTTAAAAAAGTTTCATATTTTTATTCTTTTATTTT
B15: GTGCAC_site10155 (dsDNA)
DNA 1: TTGATAAAATCACTGGTGCATGTAGATATATAATAT
DNA 2: ATATTATATATCTACATGCACCAGTGATTTTATCAA
B16: GTGCAC_site10129 (dsDNA)
DNA 1: GCATATGTATATAATGTGCACATGGATTATATAAAA
DNA 2: TTTTATATAATCCATGTGCACATTATATACATATGC
B17: GTGCAC_negctrl_site61 (dsDNA)
DNA 1: TGTTTTTTGTTCTTTACAAAAAAAAAAAAAAAAAAA
DNA 2: TTTTTTTTTTTTTTTTTTTGTAAAGAACAAAAAACA
B18: GTGCAC_negctrl_site522 (dsDNA)
DNA 1: TTTTTTACGCATAACTTAATATGAGAATCCCTTTCT
DNA 2: AGAAAGGGATTCTCATATTAAGTTATGCGTAAAAAA
B19: GTGCAC_negctrl_site610 (dsDNA)
DNA 1: AATATATGGTTTCATGATATAAAATTCAATTTAATG
DNA 2: CATTAAATTGAATTTTATATCATGAAACCATATATT
B20: GTGCAC_site9562 (dsDNA)
DNA 1: ACATTTAAATAATATGTGCACAGCTATATTTTCTTT
DNA 2: AAAGAAAATATAGCTGTGCACATATTATTTAAATGT
B21: GTGCAC_negctrl_site520 (dsDNA)
DNA 1: AAAAAAAAATAAATAAATATATATAATATTTATGTT
DNA 2: AACATAAATATTATATATATTTATTTATTTTTTTTT
B22: GTGCAC_negctrl_site104 (dsDNA)
DNA 1: TTTTTTTTTTCTTTTTTTTATTATATTAACGGAATT
DNA 2: AATTCCGTTAATATAATAAAAAAAAGAAAAAAAAAA
B23: GTGCAC_negctrl_site533 (dsDNA)
DNA 1: AAATTAATAAATATTTTTATAAATTATAATATTAAT
DNA 2: ATTAATATTATAATTTATAAAAATATTTATTAATTT
B24: GTGCAC_negctrl_site503 (dsDNA)
DNA 1: AAACAAAAGTAGAAGGTAGAGTATTTTATATTTAAA
DNA 2: TTTAAATATAAAATACTCTACCTTCTACTTTTGTTT
B25: GTGCAC_site9580 (dsDNA)
DNA 1: ATTTTTATTTTTTTTGTGCACATTTTCATTTTCTAT
DNA 2: ATAGAAAATGAAAATGTGCACAAAAAAAATAAAAAT
B26: GTGCAC_negctrl_site724 (dsDNA)
DNA 1: TCCTCAAAAAAATAAAATAATTTATACTTTTTTAAA
DNA 2: TTTAAAAAAGTATAAATTATTTTATTTTTTTGAGGA
B27: GTGCAC_negctrl_site167 (dsDNA)
DNA 1: TTGTATTTACACGATCAACCAAATGGTATATAAATA
DNA 2: TATTTATATACCATTTGGTTGATCGTGTAAATACAA
B28: GTGCAC_negctrl_site428 (dsDNA)
DNA 1: AATATATGTATATATTTTTTTTTTTCCCTTACAAAT
DNA 2: ATTTGTAAGGGAAAAAAAAAAATATATACATATATT
B29: GTGCAC_negctrl_site329 (dsDNA)
DNA 1: TTTTTTTCTTTTTCAAAAAAAAAAAAAAAAAAAATA
DNA 2: TATTTTTTTTTTTTTTTTTTTTGAAAAAGAAAAAAA
B30: GTGCAC_negctrl_site204 (dsDNA)
DNA 1: TAATATGTTTATGGTAACATACAAAAATGTATATAT
DNA 2: ATATATACATTTTTGTATGTTACCATAAACATATTA
B31: GTGCAC_negctrl_site82 (dsDNA)
DNA 1: CTGATATATTATTTATCTGAATATATTAATATGTAT
DNA 2: ATACATATTAATATATTCAGATAAATAATATATCAG
B32: GTGCAC_negctrl_site36 (dsDNA)
DNA 1: TTATGTGATAAAAAAAAAATACAACAAAGTTAAATA
DNA 2: TATTTAACTTTGTTGTATTTTTTTTTTATCACATAA
B33: GTGCAC_negctrl_site443 (dsDNA)
DNA 1: ATATAATTTGTTATACTAACTTTTTAATTATTGATA
DNA 2: TATCAATAATTAAAAAGTTAGTATAACAAATTATAT
B34: GTGCAC_negctrl_site376 (dsDNA)
DNA 1: AACAGAATAATACTAAATGAACGATTTCTCTTTATG
DNA 2: CATAAAGAGAAATCGTTCATTTAGTATTATTCTGTT
B35: GTGCAC_negctrl_site350 (dsDNA)
DNA 1: TTCACTTTTTTTTTTTTTTTTTTTTTTTTTTTTATT
DNA 2: AATAAAAAAAAAAAAAAAAAAAAAAAAAAAAGTGAA
B36: GTGCAC_negctrl_site521 (dsDNA)
DNA 1: AGTGGAATGTATGATTTTCATTCCTTAAAATTTTAA
DNA 2: TTAAAATTTTAAGGAATGAAAATCATACATTCCACT
B37: GTGCAC_negctrl_site440 (dsDNA)
DNA 1: TTTTTTATTCCATAATATAATATGTTTTGAAATTTG
DNA 2: CAAATTTCAAAACATATTATATTATGGAATAAAAAA

Key:
SIP2 D1 = target: T1, SIP2 D1 (Plasmodium falciparum, UniProt C6KSN9 177-235); assay: gcPBM; about 25 ug protein; PBS, 1% milk, 0.2 mg/ml BSA, salmon testes DNA, 0.03% Triton X-100; settings: tags: N-terminal GST (pGEX-4T-1), kept; label: surface-attached array probe
T1 sequence: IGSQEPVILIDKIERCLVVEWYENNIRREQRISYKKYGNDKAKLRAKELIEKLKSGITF

HDP1 homeodomain-like = target: T2, HDP1 homeodomain-like (Plasmodium falciparum, UniProt Q8IKH4 2990-3078); assay: as above; settings: tags: N-terminal GST (pGEX-4T-1), kept; chain copies: 2; label: surface-attached array probe
T2 sequence: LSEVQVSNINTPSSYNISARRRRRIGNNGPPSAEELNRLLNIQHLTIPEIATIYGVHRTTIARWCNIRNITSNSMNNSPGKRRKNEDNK

Binder | binding signal (SIP2 D1) | binding signal (HDP1 homeodomain-like)
B1 | 6.85 ln median PBM intensity, better of two orientations | 6.29 ln median PBM intensity, better of two orientations
B2 | 6.63 ln median PBM intensity, better of two orientations | 5.87 ln median PBM intensity, better of two orientations
B3 | 6.88 ln median PBM intensity, better of two orientations | 6.1 ln median PBM intensity, better of two orientations
B4 | 6.76 ln median PBM intensity, better of two orientations | 6.15 ln median PBM intensity, better of two orientations
B5 | 6.58 ln median PBM intensity, better of two orientations | 5.75 ln median PBM intensity, better of two orientations
B6 | 6.65 ln median PBM intensity, better of two orientations | 6.34 ln median PBM intensity, better of two orientations
B7 | 6.71 ln median PBM intensity, better of two orientations | 6.08 ln median PBM intensity, better of two orientations
B8 | 6.7 ln median PBM intensity, better of two orientations | 6.18 ln median PBM intensity, better of two orientations
B9 | 9.08 ln median PBM intensity, better of two orientations | 9.73 ln median PBM intensity, better of two orientations
B10 | 6.64 ln median PBM intensity, better of two orientations | 6.24 ln median PBM intensity, better of two orientations
B11 | 6.79 ln median PBM intensity, better of two orientations | 6 ln median PBM intensity, better of two orientations
B12 | 6.81 ln median PBM intensity, better of two orientations | 5.97 ln median PBM intensity, better of two orientations
B13 | 6.68 ln median PBM intensity, better of two orientations | 5.96 ln median PBM intensity, better of two orientations
B14 | 6.41 ln median PBM intensity, better of two orientations | 5.89 ln median PBM intensity, better of two orientations
B15 | 9.7 ln median PBM intensity, better of two orientations | 9.06 ln median PBM intensity, better of two orientations
B16 | 9.12 ln median PBM intensity, better of two orientations | 11.2 ln median PBM intensity, better of two orientations
B17 | 6.89 ln median PBM intensity, better of two orientations | 6.15 ln median PBM intensity, better of two orientations
B18 | 6.89 ln median PBM intensity, better of two orientations | 6.33 ln median PBM intensity, better of two orientations
B19 | 6.78 ln median PBM intensity, better of two orientations | 6.09 ln median PBM intensity, better of two orientations

Binder | binding signal (SIP2 D1) | binding signal (HDP1 homeodomain-like)
B20 | 9.19 ln median PBM intensity, better of two orientations | 10.9 ln median PBM intensity, better of two orientations
B21 | 6.84 ln median PBM intensity, better of two orientations | 6.16 ln median PBM intensity, better of two orientations
B22 | 6.89 ln median PBM intensity, better of two orientations | 6.2 ln median PBM intensity, better of two orientations
B23 | 6.52 ln median PBM intensity, better of two orientations | 5.92 ln median PBM intensity, better of two orientations
B24 | 6.67 ln median PBM intensity, better of two orientations | 6.07 ln median PBM intensity, better of two orientations
B25 | 9.53 ln median PBM intensity, better of two orientations | 11.3 ln median PBM intensity, better of two orientations
B26 | 6.79 ln median PBM intensity, better of two orientations | 6.01 ln median PBM intensity, better of two orientations
B27 | 6.87 ln median PBM intensity, better of two orientations | 6.23 ln median PBM intensity, better of two orientations
B28 | 6.66 ln median PBM intensity, better of two orientations | 6.17 ln median PBM intensity, better of two orientations
B29 | 6.85 ln median PBM intensity, better of two orientations | 5.41 ln median PBM intensity, better of two orientations
B30 | 6.79 ln median PBM intensity, better of two orientations | 6.05 ln median PBM intensity, better of two orientations
B31 | 6.78 ln median PBM intensity, better of two orientations | 6.08 ln median PBM intensity, better of two orientations
B32 | 6.76 ln median PBM intensity, better of two orientations | 6.32 ln median PBM intensity, better of two orientations
B33 | 6.82 ln median PBM intensity, better of two orientations | 6.13 ln median PBM intensity, better of two orientations
B34 | 6.78 ln median PBM intensity, better of two orientations | 5.96 ln median PBM intensity, better of two orientations
B35 | 6.86 ln median PBM intensity, better of two orientations | 6 ln median PBM intensity, better of two orientations
B36 | 6.55 ln median PBM intensity, better of two orientations | 5.94 ln median PBM intensity, better of two orientations
B37 | 6.8 ln median PBM intensity, better of two orientations | 6.16 ln median PBM intensity, better of two orientations

Source: PMC11417369, “DNA sequence and chromatin differentiate sequence-specific transcription factor binding in the human malaria parasite Plasmodium falciparum”
